Test results from patent US20210301021A1 (NANJING GENSCRIPT BIOTECH, published 2021).

Tests used:
[1] = biological target: T1, CTLA-4 on the functional cells of the Promega anti-CTLA-4 blocking assay kit (UniProt P16410 36-223, limits assumed); assay: cell-based or functional assay
T1 sequence (looked up): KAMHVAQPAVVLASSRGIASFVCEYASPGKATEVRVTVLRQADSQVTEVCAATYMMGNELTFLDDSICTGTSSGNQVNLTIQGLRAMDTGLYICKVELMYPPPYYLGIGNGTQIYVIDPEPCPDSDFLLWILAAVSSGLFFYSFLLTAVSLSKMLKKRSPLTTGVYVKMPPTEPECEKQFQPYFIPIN

[2] = biological target: T2, CTLA4/His (human, UniProt P16410 36-161); assay: SPR (Biacore), untreated control of the oxidation pressure test, analyte CTLA4/His
T2 construct: not shown: His tag
T2 sequence (looked up): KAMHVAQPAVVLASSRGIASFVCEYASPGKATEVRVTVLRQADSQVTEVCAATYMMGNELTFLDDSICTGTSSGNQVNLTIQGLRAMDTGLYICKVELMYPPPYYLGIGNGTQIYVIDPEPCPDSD

[3] = biological target: T2, CTLA4/His; assay: SPR, Biacore 8K, antibody captured on the chip, antigen as analyte, 1:1 binding model
[4] = biological target: T2, CTLA4/His; assay: SPR, Biacore 8K, antibody captured on the chip, antigen as analyte, 1:1 binding model; chimeric antibody, analyte CTLA4/His (Table 4)
[5] = biological target: T2, CTLA4/His; assay: SPR, Biacore 8K, antibody captured on the chip, antigen as analyte, 1:1 binding model; Table 4, analyte CTLA4/His; Rmax 38.2, Chi^2 5.48E-02

B1: Chimeric antibody (antibody, V domains shown)
VH: QVHLQQSGDVLVKPGASVNLSCKASGYTFTSYWINWIKQRPGQGLEWIGRIAPGSGTTYYNEMFTGKATLTVVTSSTTAYIQLSSLSFEDSAVYFCARGDYFDYWDQGTTLTVSS
VL: QIVLTQSPAIMSASPGGKVTITCSASKSVSYIHWFQQKPGTSPKLLIYDTSTLASGVPPRFSGSGSGPSYSLTISRMEAEDAATYYCQQRTTYPLTFGGGTKLEVR
notes: also called Chimeric IgG
- EC50 (µg/ml), luciferase reporter, Promega anti-CTLA-4 blocking assay (CD80/CD86 aAPC/Raji cells with functional cells expressing CTLA-4) [1]: 3.96 µg/mL
- Kd [2]: 0.0219 nM
- koff [2]: 8.16e-06 s⁻¹
- kon [2]: 372000 M⁻¹ s⁻¹
- Kd [3]: ≤ 0.023 nM
- kon [3]: 434000 M⁻¹ s⁻¹
- koff [4]: ≤ 1e-05 s⁻¹

B2: AH01672 humanized anti-human CTLA4 monoclonal antibody (human IgG1/kappa) (antibody, V domains shown)
VH: QVQLVQSGAEVKKPGASVKVSCKASGYTFTSYWINWVKQAPGQGLEWMGRIAPGSGTTYYNEMFTGRVTMTRDTSTSTAYMELSSLRSEDTAVYYCARGDYFDYWDQGTMVTVSS
VL: DIQLTQSPSFLSASVGDRVTITCSASKSVSYIHWYQQKPGKAPKLLIYDTSTLASGVPPRFSGSGSGPEFSLTISSLQPEDFATYYCQQRTTYPLTFGGGTKLEIK
notes: also called AH1672
- EC50 (µg/ml), luciferase reporter, Promega anti-CTLA-4 blocking assay (CD80/CD86 aAPC/Raji cells with functional cells expressing CTLA-4) [1]: 7.31 µg/mL
- Kd [3]: ≤ 0.0145 nM
- koff [3]: ≤ 1e-05 s⁻¹
- kon [5]: 690000 M⁻¹ s⁻¹
